The values below come from article PMC8124061.

Broadly, the stoichiometry N is the number of molecules, sites or subunits per partner or assembly.

Several values for one entry are separate records, joined by “and”; a condition that tells them apart may be missing. Equal values may be shown once.

Test [1] has as its target F1FO ATP synthase (complex V) of Euglena gracilis mitochondria (Euglena gracilis (endogenous in mitochondria)). Put plainly: native gel or EMSA; BN-PAGE, 3-10% acrylamide gradient, of mitochondria solubilised with DDM 4.0 g/g protein (3.2% w/v), 4 °C, pH 8.4, 100 mM NaCl; Coomassie and in-gel NADH-dehydrogenase and ATPase activity. On the technique in general: A gel shift assay detects complexes by their altered migration in electrophoresis.

The target is the same in test [2]. Put plainly: native gel or EMSA; BN-PAGE, 3-10% acrylamide gradient with 0.05% digitonin, of mitochondria solubilised with digitonin 8.0 g/g protein (6.4% w/v; up to 12 g/g), 4 °C; Coomassie and in-gel NADH-dehydrogenase and ATPase activity.
Test [3] has the same target. As to the kind of experiment: native gel or EMSA; two-dimensional BN/BN-PAGE of digitonin-solubilised mitochondria; second BN-PAGE with 0.02% DDM in the cathode buffer, which dissociates the supercomplexes; NADH-dehydrogenase activity stain.
Test [4] shares this target. As to the kind of experiment: native gel or EMSA; purified dimeric ATP synthase incubated with DDM at room temperature for 10 min; species assigned by size; kind of gel not told in the legend.
The target is the same in test [5]. Put plainly: native gel or EMSA; BN-PAGE, 3-10% acrylamide gradient, of mitochondria solubilised with DDM 4.0 g/g protein (3.2% w/v), 4 °C, pH 8.4, 100 mM NaCl; Coomassie and in-gel NADH-dehydrogenase and ATPase activity. This is another data set of the same source.
The target of test [6] is dimeric ubiquinol:cytochrome c oxidoreductase (complex III, III2) of Euglena gracilis mitochondria (Euglena gracilis (endogenous in mitochondria)). As to the kind of experiment: native gel or EMSA; two-dimensional BN/SDS Tricine-PAGE (12%) of digitonin-extracted complexes; subunits told by their electrophoretic profile.

On to “F1FO ATP synthase (complex V) of Euglena gracilis mitochondria”, for which the stoichiometry N in test [1] is 4; in test [2] it was 2 and 4; in test [3] it was 4; in test [4] it was 2; in test [5], 2.

On to “cytochrome c oxidase (complex IV) of Euglena gracilis mitochondria”, for which the stoichiometry N in test [6] is 1 and 2.
